Earlier results as cited in publication PMC6723671.

Target: CD150 (SLAM) ECD (Homo sapiens) (UniProt Q13291)

- Kd: > 200 µM
Substance: CD150 (SLAM) ECD (from UniProt Q13291)
